Data: patent US20220177560A1 (Janssen / Centocor, published 2022)

What was measured:
human Aβ1-40 peptide [1] = biological target: human Aβ1-40 peptide (human); assay: SPR (Biacore T200), antibody captured, peptide injected
Target sequence in this assay (peptide, as listed by the source): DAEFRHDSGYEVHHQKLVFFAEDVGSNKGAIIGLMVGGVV

human Aβ 3pE-28 peptide = human Aβ 3pE-28 peptide (human, pyroglutamate (pE) at the N-terminus, residue 3 of Aβ); assay: SPR, antibody captured on anti-human or anti-mouse Ig chip, peptide injected, 1:1 fit; N=1
human Aβ 3pE-40 peptide = human Aβ 3pE-40 peptide (human, pyroglutamate (pE) at the N-terminus, residue 3 of Aβ); assay: SPR (Biacore T200), antibody captured by anti-mouse antibody on CM5, peptide injected, 1:1 fit; mean
human Aβ1-40 peptide [2] = biological target: human Aβ1-40 peptide (human); assay: sandwich ELISA, BAMB31_1 coated, JRF/cAβ40/28-HRPO detection
rodent Aβ3pE-40 = biological target: T1, rodent Aβ3pE-40 (rodent, pyroglutamate (pE) at the N-terminus, residue 3 of Aβ); assay: as above
T1 peptide: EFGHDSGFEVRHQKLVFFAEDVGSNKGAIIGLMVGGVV

human AβpE11-40 = biological target: T2, human AβpE11-40 (human, pyroglutamate (pE) at the N-terminus, residue 11 of Aβ); assay: as above
T2 construct: also called Aβ11pE-40
T2 peptide: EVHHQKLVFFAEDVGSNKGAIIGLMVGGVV

human Aβ1-42 = human Aβ1-42 (human); assay: sandwich ELISA, BAMB31_1 coated, JRF/cAβ42/26-HRPO detection
AβpE11-42 = biological target: T3, AβpE11-42 (human, pyroglutamate (pE) at the N-terminus, residue 11 of Aβ); assay: as above
T3 construct: also called Aβ11pE-42
T3 peptide: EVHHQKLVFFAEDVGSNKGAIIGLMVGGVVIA

Aβ3pE-42 = Aβ3pE-42 (pyroglutamate (pE) at the N-terminus, residue 3 of Aβ); assay: sandwich ELISA, BAMB31_1 coated, HRPO-labeled C-terminal antibody for detection

Sequence of human Aβ 3pE-40 peptide (human, pyroglutamate (pE) at the N-terminus, residue 3 of Aβ) (peptide, as listed by the source): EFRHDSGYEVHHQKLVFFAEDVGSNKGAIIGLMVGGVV
Sequence of human Aβ 3pE-28 peptide (human, pyroglutamate (pE) at the N-terminus, residue 3 of Aβ) (peptide, as listed by the source): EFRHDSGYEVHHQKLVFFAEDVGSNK

Binder | binding result (human Aβ1-40 peptide [1]) | Kd (human Aβ 3pE-28 peptide) | koff (human Aβ 3pE-28 peptide) | kon (human Aβ 3pE-28 peptide) | Kd (human Aβ 3pE-40 peptide) | koff (human Aβ 3pE-40 peptide) | kon (human Aβ 3pE-40 peptide) | binding result (human Aβ1-40 peptide [2]) | binding result (rodent Aβ3pE-40) | binding result (human AβpE11-40) | binding result (human Aβ1-42) | binding result (AβpE11-42) | binding result (Aβ3pE-42)
BAMB31_2a (mIgG2a) (antibody, BAMB31 V regions on murine IgG2a; also called BAMB31 (mIgG2a); mIgG2a parent) heavy: EIQLQQSGPELVKPGTSVKVSCKASGHVFTSYDMYWVKQSHGKSLEWIGYIDSDNGDTSYNQKFKGKATLTVDKSSSTAYMHLNSLTSEDSAVYYCAYYRYAMDYWGQGTSVTVSSAKTTAPSVYPLAPVCGDTTGSSVTLGCLVKGYFPEPVTLTWNSGSLSSGVHTFPAVLQSDLYTLSSSVTVTSSTWPSQSITCNVAHPASSTKVDKKIEPRGPTIKPCPPCKCPAPNLLGGPSVFIFPPKIKDVLMISLSPIVTCVVVDVSEDDPDVQISWFVNNVEVHTAQTQTHREDYNSTLRVVSALPIQHQDWMSGKEFKCKVNNKDLPAPIERTISKPKGSVRAPQVYVLPPPEEEMTKKQVTLTCMVTDFMPEDIYVEWTNNGKTELNYKNTEPVLDSDGSYFMYSKLRVEKKNWVERNSYSCSVVHEGLHNHHTTKSFSRTPGK light: not shown | no binding (tested: 50 nM) | 0.0275 nM | 7.97e-05 s⁻¹ | 2.89e+06 M⁻¹ s⁻¹ | 0.053 nM | 4.94e-05 s⁻¹ | 930000 M⁻¹ s⁻¹ |  |  |  |  |  | 
BAMB31_1 (antibody, mouse IgG1, V domains shown, Hybridoma antibody) VH: EIQLQQSGPELVKPGTSVKVSCKASGHVFTSYDMYWVKQSHGKSLEWIGYIDSDNGDTSYNQKFKGKATLTVDKSSSTAYMHLNSLTSEDSAVYYCAYYRYAMDYWGQGTSVTVSS VL: not shown |  |  |  |  |  |  |  | no binding (tested: 10 ng/mL) | no binding (tested: 10 ng/mL) | no binding (tested: 10 ng/mL) | no binding (tested: 10 ng/mL) | no binding (tested: 10 ng/mL) | binds
